In PMC7418779:

Molecular target: human platelet actin (non-muscle actin), used as monomeric ATP-G-actin or as pre-formed F-actin (human) (UniProt P60709)
Assay: co-sedimentation

Substance | Kd [nM] | percent remaining in supernatant (not pelleted with F-actin) [%]
FLAG-tagged SHTN1L lacking CCD-I (1L-ΔCCD-I), purified (domain or fragment) | 21.9 | –
FLAG-tagged SHTN1L, full length, purified (from UniProt Q8K2Q9 1-631) (natural protein) | 164 | 50
